Reference: the nanobody polyreactivity screen of Harvey et al. (2022)

Assay: yeast display, Sf9 membrane polyspecificity reagent, FACS + sequencing; frameworks hold sequencing errors
Procedure, shortened: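 Synthetic nanobody libraries on Saccharomyces cerevisiae BJ5465 were galactose-induced for 36–48 hours, stained 1 hour at 4 °C with 10% biotinylated, detergent-solubilized Sf9 membrane reagent and enriched on streptavidin microbeads. FACS then separated cells into low and high (top ~1%) gates by anti-HA (expression) and streptavidin (reagent binding) fluorescence. Genes were colony-PCR amplified, MiSeq 2 × 250 sequenced and CDR-length filtered. A clone's polyreactivity label is that of its gate of origin.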

Sequence	polyreactivity (PSR sort gate)
QVQLVESGGGLVQAGGSLRLSCAASGFTFRYYAMGWYRQAPGKERELVAAITSGDSTYYADSVKGRFTISRDNAKNTVYLQMNSLKPEDTAVYYCAAYYYGYDYWGQGTQVTVSS	high polyreactivity
QVQLVESGGGLVQAGGSLRLSCAASGSTFDRNVMGWYRQAPGKERELVAAISRVSSTNYADSVKGRFTISRDNAKNTVYLQMNSLKPEDTAVYYCAVDRAGSIMNYWGQGTQVTVSS	low polyreactivity
QVQLVESAAGLVQAGGSLRLSCDASGSIFYSYAMGWYRQAPGKERELVAAITDSGDSTYYADCVKGRFTISRDNAKNTVYLQMNSLKPEDTAVYYCAAGFYPYYYWGQGTQVTVSS	low polyreactivity
QVQLVESGGGLVHAGGSLRLSCDASGITFWAYAMGWYRQAPGKEREFVAAITVSTGSTFYADSVKGRFTISRDNAKNTVYLQMNSLKREDTALYYCAAPQDGTWWLPAGGYWGQGTQVTVSS	low polyreactivity
QVQLVESGGGLVQAGGSLRLSCADSGSTFRFNAMGWYRQAPGKERDLVAAISQSGGSTRYADSVKGRFTISRDNAKNTVYLQMNSLKPEDTAVYYCAARRRWLPGYAWQVAYDSWGQGTQVTVSS	high polyreactivity
QVQLVESGGGLVQAGGSLRLSCAASGRTFYIYAMGWYRQAPGKERELVAAITWRGGRTYYADSVKGRFTISRDNAKNTVYLQMNSLKPVDTAVYYCNARSWYSFHPHDYWGQGTQVTVSS	high polyreactivity
PVQLVESGGVLVQAGGSLRLSCAASGITFWDKAMGWYRQPPGKERELVAAITSGNTDYADSVKGRFTISRDNAKNSVYLPMTSLIPEDTAVYYCGAELLVGGGVTVDYWGQGTQVTVSS	low polyreactivity
QVQLVESGGGLVQAGGSLRLSCAASGRTLHYYAMGWYRQAPGKERELVARINWSGGSTYYADSVKGRFTISRDNAKNTVYLQMNSLKPEDTAVYYCARTSYYWSSFDYWGQGTQVTVSS	high polyreactivity
QVQIVESGGGLVQAGGSLRLSCAASGFTFVINDMGWYRQAPGKERELVADITSGGDTYYADSVKGRFTISRDNAKNTVYLQMNSLKPEDTAVYYCAADIYPDWIYLLYGYWGQGTQVTVSS	low polyreactivity
QVQLVESGGGLVQAGVSLRLSCDASGSTFHYYVMGSSRQAPGKEREFVAAISRSGGNPYYADSVKGRFTISRDNAKNTVYLQMNSLKPDDTAVYYCAAALSAYVKWDYYYCGQGTQVTVSS	low polyreactivity
QVQLVESGGGLVQAGGSLRLSCAASGITFNYYAMGWYRQAPGKERELVAVISSSGGRTYYADSVKGRFTISRDNAKNTVYFQMNSLKPEDTAVYYCGAGCSVAFYYWGQGTQVTVSS	high polyreactivity
QVQRVESGGGLVQAGGSLRLSSAASGRIFWDNAMGGYRQEPGKERELVAAISDSVVITYYADSVKGRFTITRDNAKNTVYLQMNSLKPEDTAVYYCNVTGGPYDFTRWSEFDHWGQGTQETVSS	low polyreactivity
QVQLVESGGGLIQAGGSLRLSCAASGSTFGTYTRGWYRQAPGKERELVAAIRSGGITYYADSVKGRFTISRDNAKNTVYLQMNSLKPEDTAVYYCAKQYTGEPAMEYWGQGTQVTVSS	low polyreactivity
QVQLVESGGGLVQAGGSLRLSCAASGRISYYYMGWYRQAPGKERELVAAISWNGGRTYYADSVKGRFTISRDNAKNTVYLQMNSLKPEDTAVYYCAAYTYSFRANHDYWGQGTQVTVSS	high polyreactivity
QVQLVESGGGLVQAGGSLRLSCAASGSTFWVYGMGWYRQAPGKERELVADITSIGGSTYYADSVKGRFTISRDNAKNTVYLQMNSLKPEDTAVYYCAARETWYPYYWMGYWGQGTQVTVSS	high polyreactivity
QVQLVESGGGLVQAGGSLRLSCAASGRIFTIYAMGLYRQEPGKERELVASITWRGGRTYYADSVKGRFTISRDNAKNTVYLQMNSLKPEDTAVYYCAAEFYRWGSLSFSYDYWGQGTQVTVSS	low polyreactivity
QVQLVESGGGLVQAGGSLRISCAASGRIFYGNAMGWYRQAPGKERELVAAIRRSGGSTYYADSVKGRFTISRDNAKNTVYLQMNSLKPEDTAVYYCNVDSGEFDYVWVYTYDYWGQGTQVTVSS	low polyreactivity
QVQLVESGGGLVQAGGSLRLSCAASGFTFRAYAMGSYRQAPGKERELVAAISTGGGSTYYADSVKGRFTISRDNAKNTVYLQMNSLKPEDTAVYYCNALPQRRYYYWGQGTQVTVSS	high polyreactivity
QVQLVESGGGLVQAGGSLRLSCADSGRTFSSYAMGWYRQAPGKERELVARISSSGGRTSYADSVKGRFTISRDNAKNTVYLQMNSLKPEDTAVYYCAKTYHWLYDYWGQGTQVTVSS	high polyreactivity
QVQLGESGGGLVQAGGSLRLSCAASGGILGYNAMGWYRQAPGKERELVATINWSGGSTYADSVKGRFTISRDNAKNTVYLQRNSLKPEDTADSYCNAVRKYWRQGTQVTVSS	low polyreactivity
QVQLVESGGGLVQAGGSLRLSCAASGSTSWYDMGWYRQPPGKERELVASISSGDSTNYADSVKGRFTISRDNAKNTVYLQMNSLKPDDTAVYYCAADFNVGFVWGDDSDYWGQGTQVTVSS	low polyreactivity
QVHLVESGGGLVQAGGSLRLSCAASGRISKLYAMGWYRQAHGKERDLVAAISSGGSTYYADSVKGRFTISRDNAKNTVYLQMNSLKPEDTAVYYCAVTQVMQYGIPYSYTRDYWGQGTQVTVSS	low polyreactivity

Sequence	polyreactivity (PSR sort gate)
QVQLVESGGGLVQAGGSLRLSCAASGLISRRNAMGWYRQAPGKERELVAAISTGSSTNYADSVKGRFTISRDNAKNTVYLQMNSLKPEDTAVYYCAATQYWWSTLGIRDDYWGQGSQVTVSS	low polyreactivity
QVQLVESGGGLVQAGGSLRLSCAASGSIFAPNAMGWYRHAPGKERELVAAISRSGGRTYYADSVKGRFTISRDNAKNTVYLQMNSLKPEDTAVYYCAADYKHQRTYGSWGQGTQVTVSS	high polyreactivity
QVQLVESGGGLVQAGGSLRLSCAASGRIFTRYAMGWYRQAPGKERELVATITKSGGSTYYADSVKGRFTISRDNAKNTVSLQMNSQKPDDTAVYYCAADSWWTYQYDYWGQGTQVTVSS	low polyreactivity
QGQLVESGGGLVQAGGSLRLSCAASGNTFNVYAMGWYRQAPGKARELVAAITLSGGSTYYADSVKGRFTISRDNSKNTVYLQMNSLKPEDTAFYYCNAEEDGTDYDYWGQGTQVTVSS	low polyreactivity
QVQLVESGGGLVQAGGSLSLSCAASGSTFAYYAMGWYRQAPGKERELVAGITWTGGSTYYADSVKGRFTISRDNAKHTDYLQMNSLKPEDTAVYYCAVTYPYGYEYDHWGQGSQVTVSS	low polyreactivity
QVQLVESGGGLVQAGGSLRLSCAASGFTFVSYAMGWYRQAPGKERELVAAISSRVVSTYYADSVKGRFTISRDNAKNTVYLQMNSLKPEDTAVYYCATDRYAYKLYDYWGQGTQVTVSS	low polyreactivity
QVQLVESGGGLDQAGGSLRLSCAASGIIFRNYAMGWYRQAPGKERELVATITGDGGSTYYADSVKGRFTISRDNAKNTVYLQMNSLKPEDTAVYYCNADVSKRGWTTYWYGYGYYYWGQGTQVTVSS	low polyreactivity
QVQLVESGGGLVQAGGSLRLSCAASGIIFFGYAMGWYRQAPGKERELVADITNGGRTYYADSVKGRFTISRDNAKNTVYLQMNSLKPEDTAVYYCAADAFWEVYYYNALEYDYWGQGTQVTVSS	high polyreactivity
QVQLVESGGGLVQAGGSLRLSCAASGSIFPVYAMGWYRQAPGKERELVAAISSRGGTTYYADSVKGRFTISRDNAKNTVYLQMNSLKPEDTAVYYCAATRSGKYYGTRRKYGYWGQGTQVTVSS	high polyreactivity
QVQLVESGGGLVQAGGSLRLSCAASGRTFNYYAMGWYRQAPGKERELVAAISSGGSTDYADSVKGRFTISRDNAKNTVYLQMNSMKPEDTAVYYCNAESYPGWAYFAYDYQFDYWGQGTQVTVSS	low polyreactivity
QVQLVESGGGLVQAGGSLRLSCAASGFIFAYYAMGWYRQAPGKERELVAAITIDGSTNYADSVKGRFTISRDNAKNTVYVQMNSLKPEDSAVYYCAAAEHPPVWYGYWGQGTQVTVSS	low polyreactivity
QVQLVESGGGLVQAGGSLRLSCAASGRILYKYAMGWYRQAPGKERELVAAISRRGGSTFYADSVKGRFTISRDNAKNTVYLQMNSLKPEDTAVYYCAAGSTRYAGWTYNYWGQGTQVTVSS	high polyreactivity
QVQLVESGGGLVQAGGSLRLSCAASGSIFAGNAMGWYRQPPGKERELVASISWRGGSTYYADSVKGRFTISRDNAKKTVYLQMNSLKPEDTAVYYCNADLVLFPLTWPYYYWGQGTQVTVSS	low polyreactivity
QVQVVESVGGLVQAGGILRLSCAASGRTFRGNAMGWYRQAPGKERELVAAISSSGARTYYADSVKGRFTISRDNAKNTVYLQMNSLKPEDTAVYYCAAVYTDGALQGYDYWGQGTQVTVSS	low polyreactivity
QVQLVESGGGLVQAGGSLRLSCAASGRIFSRYAMGWYRQAPGKERELVATITISGGSTYYADSVKGRFTISRDNAKNTVYLQMNSLKPEDTAVYYCAAETTASYYKRTDDYDYWGQGTQVTVSS	low polyreactivity
QVQLVESGGGLVQAGGSLRLSCAASGRIFWRNTMGWYRQAPGKERELVAAITGSSTRTYYADSVKGRFTISRDNAKNTVYLQMNSLKPEDTAVYYCAARSYPYQVAAGYVTRFNYWGQGTQVTVSS	high polyreactivity
QVQLVESGGGLVQAGGSLRLSCATYAMGWSRQAPGKERELVASIRSGSTYYADSVKGRFTISRDNAKNTVYLQMNSLKPEDTAVYYCAAYEIYYEFDSWGQGTQVTVSS	low polyreactivity
QVQLVESGGGLVQAGGSLRFSCAASGSTFIGYDMGWYRQEPGKERELVAAISYSDGTYYAESVKGRFTISRDNAKNTVYLQMNSLNPEDTAVYYCAADSLYYRYDYWGQGTQVTVSS	low polyreactivity
QVQLVESGGGLVQAGGSLRLSCAASGFTLGDNAMGWYRQAPGTERELVAAISASGGSTYYADSVKGRFTISRDNEKNTVYLQMNSLKPEDTAVYYCILHGYKYDYWGQGTQVTVSS	low polyreactivity
QVQRVESGGGLVQAGGSLSLSCAASGRTCGVYAMGWYRQAPGKERELGASSSRSAGSTYYADSVKGRFTISRDNAKNTVYFQMNSLKTEDTAVYYCAAVYKRGMDYWGQGTQVTVSS	high polyreactivity
QFQHVESVGGLVQAGGSLRLSCAASGRIFPYYALGWYREAPGKERELVAAISQSDGSTYYADSVKGRFTISRDNAKNTVYLQMNSLKPEDTAVYYCAKRQASYTQHRKVRGDYWGQGPQVTVSS	low polyreactivity
